These results are taken from patent US20240390512A1, “METHODS OF TREATING CHEMOTHERAPY-RESISTANT CANCER WITH AN ANTIBODY-DRUG CONJUGATE” (DAIICHI SANKYO COMPANY, LIMITED, priority 2021, published 2024).

For one assay, the target named is T1, human CDH6 (Homo sapiens, UniProt P55285).
T1 construct: expressed in transfected cells; host or cells: 293α cells (HEK293 stably expressing integrin αv and β3)
T1 sequence (P55285 19-790): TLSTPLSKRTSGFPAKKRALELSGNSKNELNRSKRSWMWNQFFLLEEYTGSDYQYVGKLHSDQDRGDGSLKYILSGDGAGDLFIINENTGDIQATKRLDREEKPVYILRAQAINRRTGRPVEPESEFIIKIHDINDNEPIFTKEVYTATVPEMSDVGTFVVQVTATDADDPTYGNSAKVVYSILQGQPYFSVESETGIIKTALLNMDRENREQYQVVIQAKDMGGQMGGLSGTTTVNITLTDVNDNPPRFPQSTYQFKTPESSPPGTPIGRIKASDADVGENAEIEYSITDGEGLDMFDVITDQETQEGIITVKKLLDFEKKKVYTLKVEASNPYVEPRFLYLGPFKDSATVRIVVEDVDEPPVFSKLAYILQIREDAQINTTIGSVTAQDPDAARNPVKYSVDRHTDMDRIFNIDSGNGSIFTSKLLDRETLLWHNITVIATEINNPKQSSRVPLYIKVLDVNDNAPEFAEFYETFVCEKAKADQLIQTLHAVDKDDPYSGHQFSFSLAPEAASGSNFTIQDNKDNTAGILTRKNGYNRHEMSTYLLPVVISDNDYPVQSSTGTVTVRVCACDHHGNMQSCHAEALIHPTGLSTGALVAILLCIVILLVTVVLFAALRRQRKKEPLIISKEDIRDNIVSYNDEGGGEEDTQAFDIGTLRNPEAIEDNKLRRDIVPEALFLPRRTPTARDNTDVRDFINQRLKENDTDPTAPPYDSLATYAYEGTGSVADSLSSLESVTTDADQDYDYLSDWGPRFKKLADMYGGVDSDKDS
As to the kind of experiment: Hybridoma screening by Cell-ELISA. The format is binding. The note with it: hybridoma culture supernatant; 293α cells transfected with pcDNA3.1-hCDH6. How it is done: 293α cells (a stable expression cell line derived from HEK293 cells expressing integrin αv and integrin β3) were prepared at 5×10^5 cells/mL in DMEM medium supplemented with 10% FBS. In accordance with transduction procedures for using Lipofectamine 2000 (Thermo Fisher Scientific Inc.), DNA of pcDNA3.1-hCDH6 or pcDNA3.1-cynoCDH6, or pcDNA3.1 as a negative control was introduced into the 293α cells, and the cells were dispensed in an amount of 100 μL/well onto a 96-well plate (Corning Inc.). Thereafter, the cells were cultured under conditions of 37° C. and 5% CO2 in DMEM medium supplemented with 10% FBS for 24 to 27 hours. The obtained transfected cells were used for Cell-ELISA in an adhesive state.
The culture supernatant of the 293α cells transfected with the expression vector prepared in Reference Example 1)-4-1 was removed, and the culture supernatant from each hybridoma was then added to the 293α cells transfected with pcDNA3.1-hCDH6 or pcDNA3.1-cynoCDH6, or pcDNA3.1. The cells were left standing at 4° C. for 1 hour. The cells in the wells were washed once with PBS (+) supplemented with 5% FBS, and thereafter, Anti-Rat IgG-Peroxidase antibody produced in rabbit (Sigma-Aldrich Co. LLC) that had been 500-fold diluted with PBS (+) supplemented with 5% FBS was added to the wells. The cells were left standing at 4° C. for 1 hour. The cells in the wells were washed three times with PBS (+) supplemented with 5% FBS, and thereafter, OPD coloring solution (which had been prepared by dissolving o-phenylenediamine dihydrochloride (Wako Pure Chemical Industries, Ltd.) and H2O2 in an OPD solution (0.05 M trisodium citrate, 0.1 M disodium hydrogen phosphate 12-water; pH 4.5), so that the substances became 0.4 mg/ml and 0.6% (v/v), respectively, was added in an amount of 100 μL/well to the wells. A coloring reaction was carried out with occasional stirring. Thereafter, 1 M HCl was added to the plate (100 μL/well) to terminate the coloring reaction, followed by measurement of the absorbance at 490 nm using a plate reader (ENVISION: PerkinElmer, Inc.).
The heavy chain subclass and the light chain type of the antibody were determined using a RAT MONOCLONAL ANTIBODY ISOTYPING TEST KIT (DS Pharma Biomedical Co., Ltd.).
A general note: An ELISA detects its analyte on a solid surface through an enzyme-linked reagent.

The target of assay [1] is T2, hCDH6-transfected 293T cells (Homo sapiens, UniProt P55285).
T2 construct: expressed in transfected cells; host or cells: 293T cells (ATCC)
T2 sequence (P55285 19-790): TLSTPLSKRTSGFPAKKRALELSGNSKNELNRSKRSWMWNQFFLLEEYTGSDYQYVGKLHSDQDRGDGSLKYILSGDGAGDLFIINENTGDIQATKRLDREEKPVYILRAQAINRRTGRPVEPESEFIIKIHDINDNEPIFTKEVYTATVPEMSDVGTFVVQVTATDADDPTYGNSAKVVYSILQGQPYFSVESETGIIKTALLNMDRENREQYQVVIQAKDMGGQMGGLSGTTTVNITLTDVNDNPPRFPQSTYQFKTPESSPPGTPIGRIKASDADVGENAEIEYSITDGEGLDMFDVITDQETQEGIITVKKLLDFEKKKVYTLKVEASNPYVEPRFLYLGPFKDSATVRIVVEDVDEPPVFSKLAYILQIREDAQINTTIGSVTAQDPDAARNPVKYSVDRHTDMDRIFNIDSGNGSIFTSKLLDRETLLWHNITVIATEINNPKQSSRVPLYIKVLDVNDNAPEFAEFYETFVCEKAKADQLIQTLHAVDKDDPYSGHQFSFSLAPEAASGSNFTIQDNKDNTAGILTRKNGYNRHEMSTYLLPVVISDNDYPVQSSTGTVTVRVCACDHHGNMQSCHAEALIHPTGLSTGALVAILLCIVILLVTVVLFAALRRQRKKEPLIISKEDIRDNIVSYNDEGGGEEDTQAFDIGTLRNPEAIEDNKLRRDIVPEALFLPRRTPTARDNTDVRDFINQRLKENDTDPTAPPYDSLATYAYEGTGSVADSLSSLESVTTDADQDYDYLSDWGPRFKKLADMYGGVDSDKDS
As to the kind of experiment: Binding ability of rat anti-CDH6 antibody by flow cytometry. The note with it: antibody final concentration 10 ng/mL. As to the method: The human CDH6-binding activity of the rat anti-CDH6 antibody produced in Reference Example 1)-7 was evaluated by flow cytometry. Using Lipofectamine 2000 (Thermo Fisher Scientific Inc.), pcDNA3.1-hCDH6 produced in Reference Example 1)-1 was transiently introduced into 293T cells (ATCC). The cells were cultured overnight under conditions of 37° C. and 5% CO2, and thereafter, a cell suspension was prepared. The suspension of the transfected 293T cells was centrifuged, and the supernatant was then removed. Thereafter, the cells were suspended by the addition of each of the 4 rat anti-CDH6 monoclonal antibodies (clone Nos: rG019, rG055, rG056 and rG061), which had been prepared in Reference Example 1)-7, or rat IgG control (R&D Systems, Inc.) (final concentration: 10 ng/mL). The cells were left standing at 4° C. for 1 hour. The cells were washed twice with PBS supplemented with 5% FBS, and then suspended by the addition of Anti-Rat IgG (whole molecule)-FITC antibody produced in rabbit (Sigma-Aldrich Co. LLC) that had been 50-fold diluted with PBS supplemented with 5% FBS. The cells were left standing at 4° C. for 1 hour. The cells were washed twice with PBS supplemented with 5% FBS, followed by detection using a flow cytometer (FC500; Beckman Coulter, Inc.). The data was analyzed using FlowJo (Tree Star, Inc.). In the histogram of FIG. 1, the abscissa depicts FITC fluorescence intensity indicating the amount of the antibody bound, and the ordinate depicts a cell count. […] The rat IgG control binds to neither of the cells. As a result, it was confirmed that the 4 produced rat anti-CDH6 monoclonal antibodies bind to 293T cells transfected with pcDNA3.1-hCDH6.
On the technique in general: Flow cytometry measures light scatter and fluorescence of single cells or particles in a stream.

B1: rG019: rat anti-human CDH6 monoclonal antibody produced by hybridoma rG019; variable regions SEQ ID NO: 10 and 15 (antibody, listed as Rattus norvegicus, V domains shown)
VL: DIQMTQSPSLLSASVGDRVTLNCKASQNIYKNLAWYQQKLGEGPKLLIYDANTLQTGIPSRFSGSGSGSDFTLTISSLQPEDVATYFCQQYYSGWAFGGVTNLELKRA
VH: QVQLQQSGAELVKPGSSVKISCKASGYTFTRNFMHWIKQQPGNGLEWIGWIYCGDGETEYNQKFNGKATLTADRSSSTAYMELSRLTSEDSAVYFCARGVYGGFAGGYFDFWGQGVMVTVSS
In the case of B1, in the assay with human CDH6, the “binding to human CDH6” value is “bind specifically and strongly”. In assay [1], the “binding to 293T cells transfected with pcDNA3.1-hCDH6” value (“binding to 293T cells transfected” below) is reported as “bind”.

B2: rG056: rat anti-human CDH6 monoclonal antibody produced by hybridoma rG056; variable regions SEQ ID NO: 30 and 35 (antibody, listed as Rattus norvegicus, V domains shown)
VL: DVQMTQSPSSLAASPGESVSISCRATKSIGIYLAWYQQKPGKTFKLLIYSGSTLQSGTPSRFSGSGSGTDFTLTIRSLEPEDFGLYFCQQFYENPFTFGSGTKLEIRRA
VH: EVQLQESGPGLVKPSQSLSLTCSVTDYSITTYFWGWIRKFPGNKMEWMGYMSYRGGTSYNPSLKSRISITRDTSKNQFFLQLNSVTTEDTATYYCARCPNYGGHSLVFDYWGQGVMVTVSS
In the case of B2, the “binding to human CDH6” value in the assay with human CDH6 is “bind specifically and strongly”. The “binding to 293T cells transfected” value in assay [1] was “bind”.

B3: rG055: rat anti-human CDH6 monoclonal antibody produced by hybridoma rG055; variable regions SEQ ID NO: 20 and 25 (antibody, listed as Rattus norvegicus, V domains shown)
VL: DVQMTHSPSYLAASPGESVSISCKTSKNISNYLVWYQQKPGEAYKLLIYSGSTLQSGTPSRFSGSGSGTDFTLTIRSLEPEDFGLYFCQQYYEKPFTFGSGTKLEIKRA
VH: EVQLQESGPGLVRPSQSLSLSCSVTDYSITSNYWGWIRRFPGNKMEWMGYITYSGYTSYNPSLQSRISITRDTSKNQFFLQLNSVTAEDTATYYCARSINHGGYSYVVDAWGPGASVTVSS
B3: the “binding to human CDH6” value with human CDH6 is “bind specifically and strongly”. In assay [1], the “binding to 293T cells transfected” value is recorded as “bind”.

B4: rG061: rat anti-human CDH6 monoclonal antibody produced by hybridoma rG061; variable regions SEQ ID NO: 40 and 45 (antibody, listed as Rattus norvegicus, V domains shown)
VL: DVQMTQSPSYLAASPGESVSISCKATKSISNYLAWYQQKPGEAYKVLIYSGSTLQSGTPSRFSGSGSGTDFTLTIRSLEPEDFGLYSCQQYYEKPLTFGSGTKLEIKRA
VH: EVQLQESGPGLVKPSQSLSLTCSVTGYSITTYYWGWIRKFPGNKMEWMGYISYSGRTSYNPSLKSRMSITRDASKNQFFLQLNSVTTDDTATYYCARSPINHGGYWYFDFWGPGTMVTVSS
Turning to B4, the “binding to human CDH6” value with human CDH6 was “bind specifically and strongly”. In assay [1], the “binding to 293T cells transfected” value is reported as “bind”.
